Test [1] has as its target human MIC-A (expressed on P815 mastocytoma cells) (human) (UniProt Q29983). In words: cell-based or functional assay.
Test [2] has as its target human NKG2D ligand on human tumor cell lines (Jurkat, RPMI8866, K562, Daubi, U937, ECC-1). In words: cell-based or functional assay.

Sequence of UniProt Q29983 (Q29983 24-383): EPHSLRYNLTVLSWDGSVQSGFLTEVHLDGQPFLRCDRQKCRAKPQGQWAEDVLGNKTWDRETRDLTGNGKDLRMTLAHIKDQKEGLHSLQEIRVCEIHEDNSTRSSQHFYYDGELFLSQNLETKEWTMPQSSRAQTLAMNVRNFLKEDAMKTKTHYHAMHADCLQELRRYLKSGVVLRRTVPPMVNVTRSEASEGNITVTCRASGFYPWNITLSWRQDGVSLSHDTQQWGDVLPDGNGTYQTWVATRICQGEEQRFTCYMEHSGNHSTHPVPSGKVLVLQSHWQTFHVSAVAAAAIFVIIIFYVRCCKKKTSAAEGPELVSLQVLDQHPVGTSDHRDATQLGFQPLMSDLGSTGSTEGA

For “human chimeric NKG2D (human CD3ζ attached to the N-terminus of human NKG2D) (receptor)”, in test [1], the Specific Lysis (%) of P815/MIC-A, Effector:Target Ratio 1 was determined as 5.4%; the Specific Lysis (%) of P815/MIC-A, Effector:Target Ratio 5 was determined as 17.3%; the Specific Lysis (%) of P815/MIC-A, Effector:Target Ratio 25 is 35.4%. In addition, in test [2], the Specific Lysis (%) of K562, Effector:Target Ratio 1, with control antibody was determined as 3.1%; the Specific Lysis (%) of K562, Effector:Target Ratio 5, with control antibody was 17.6%; the Specific Lysis (%) of K562, Effector:Target Ratio 25, with control antibody was 53.8%; the Specific Lysis (%) of RPMI8866, Effector:Target Ratio 1, with control antibody was determined as 9.3%. In addition, in test [2], the Specific Lysis (%) of RPMI8866, Effector:Target Ratio 5, with control antibody came out at 27.4% and the Specific Lysis (%) of RPMI8866, Effector:Target Ratio 25, with control antibody was 41.6%.
